Experimental data reported in IntAct's records for PubMed 25543256.

B1: Diphthamide biosynthesis protein 3 (Saccharomyces cerevisiae), Q3E840 (parent)
chain: MSTYDEIEIEDMTFEPENQMFTYPCPCGDRFQIYLDDMFEGEKVAVCPSCSLMIDVVFDKEDLAEYYEEAGIHPPEPIAAAA
partner: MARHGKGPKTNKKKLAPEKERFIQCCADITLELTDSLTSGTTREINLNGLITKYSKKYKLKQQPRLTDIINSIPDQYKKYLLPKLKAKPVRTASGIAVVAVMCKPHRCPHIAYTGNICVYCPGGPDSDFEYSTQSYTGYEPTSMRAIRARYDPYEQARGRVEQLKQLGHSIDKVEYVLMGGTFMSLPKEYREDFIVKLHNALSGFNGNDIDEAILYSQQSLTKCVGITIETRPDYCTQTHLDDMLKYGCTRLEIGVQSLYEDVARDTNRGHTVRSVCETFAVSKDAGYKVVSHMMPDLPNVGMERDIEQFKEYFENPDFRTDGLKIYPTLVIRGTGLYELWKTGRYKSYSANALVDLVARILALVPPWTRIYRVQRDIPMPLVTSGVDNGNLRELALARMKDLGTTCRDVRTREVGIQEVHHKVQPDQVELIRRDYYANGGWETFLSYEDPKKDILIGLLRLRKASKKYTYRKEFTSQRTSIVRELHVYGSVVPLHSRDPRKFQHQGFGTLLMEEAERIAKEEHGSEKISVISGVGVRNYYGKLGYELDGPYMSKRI
B2: Protein KTI13 (Saccharomyces cerevisiae), P31386 (parent)
chain: MSCVYAFGSNGQRQLGLGHDEDMDTPQRSVPGDDGAIVRKIACGGNHSVMLTNDGNLVGCGDNRRGELDSAQALRQVHDWRPVEVPAPVVDVACGWDTTVIVDADGRVWQRGGGCYEFTQQHVPLNSNDERIAVYGCFQNFVVVQGTRVYGWGSNTKCQLQEPKSRSLKEPVLVYDTGSVAVDYVAMGKDFMVIVDEGGRIVHASGRLPTGFELKQQQKRHNLVVLCMWTSIHLWNARLNTVESFGRGTHSQLFPQERLDFPIVGVATGSEHGILTTANQEGKSHCYNVYCWGWGEHGNCGPQKGSQPGLQLVGQYSGKPRVFGGCATTWIVL
partner: B1 chain
B3: Diphthamide biosynthesis protein 3 (Saccharomyces cerevisiae), Q3E840 (parent)
chain: B1 chain
partner: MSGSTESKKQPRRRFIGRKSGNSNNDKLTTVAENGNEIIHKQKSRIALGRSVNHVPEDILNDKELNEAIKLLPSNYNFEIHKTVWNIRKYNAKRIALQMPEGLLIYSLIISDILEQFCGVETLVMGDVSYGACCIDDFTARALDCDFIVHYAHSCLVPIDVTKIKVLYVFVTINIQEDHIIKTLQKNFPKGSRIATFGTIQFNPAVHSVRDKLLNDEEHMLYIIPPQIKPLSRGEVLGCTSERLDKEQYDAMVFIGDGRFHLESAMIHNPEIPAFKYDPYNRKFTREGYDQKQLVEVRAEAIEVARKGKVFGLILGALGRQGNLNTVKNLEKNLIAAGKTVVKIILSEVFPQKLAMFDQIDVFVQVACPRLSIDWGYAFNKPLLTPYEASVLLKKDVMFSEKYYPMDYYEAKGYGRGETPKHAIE
B4: Diphthamide biosynthesis protein 3 (Saccharomyces cerevisiae), Q3E840 (parent)
chain: B1 chain
partner: B2 chain

Variants of: B1
Conditions: with elp3_yeast ELP3, Q02908

Variant	effect of a mutation on the interaction
MSTYDEIEIEDMTFEPENQMFTYPCPCGDRFQIYLDDMFEGEKVAVCPSSSLMIDVVFDKEDLAEYYEEAGIHPPEPIAAAA [C50S]	disrupting interaction strength

Variants of: B2
Conditions: with dph3_yeast KTI11, Q3E840

Variant	effect of a mutation on the interaction
MSCVYAFGSNGQRQLGLGHDEDMDTPQRSVPGDDGAIVRKIACGGNHSVMLTNDGNLVGCGDNRRGELDSAQALRQVHDWRPVEVPAPVVDVACGWDTTVIVDADGRVWQRGGGCYEFTQQHVPLNSNDERIAVYGCFQNFVVVQGTRVYGWGSNTKCQLQEPKSRSLKEPVLVYDTGSVAVDYVAMGKDFMVIVDEGGRIVHASGRLPTGFELKQQQKRHNLVVLCMWTSIHLWNARLNTVESFGRGTHSQLFPQERLDFPIVGVATGSEHGILTTANQEGKSHCYNVYCWGWGEAGNCGPQKGSQPGLQLVGQYSGKPRVFGGCATTWIVL [H297A]	increasing interaction strength
MSCVYAFGSNGQRQLGLGHDEDMDTPQRSVPGDDGAIVRKIACGGNHSVMLTNDGNLVGCGDNRRGELDSAQALRQVHDWRPVEVPAPVVDVACGWDTTVIVDADGRVWQRGGGCYEFTQQHVPLNSNDERIAVYGCFQNFVVVQGTRVYGWGSNTKCQLQEPKSRSLKEPVLVYDTGSVAVDYVAMGKDFMVIVDEGGRIVHASGRLPTGFELKQQQKRHNLVVLCMATSIHLWNARLNTVESFGRGTHSQLFPQERLDFPIVGVATGSEHGILTTANQEGKSHCYNVYCWGWGEHGNCGPQKGSQPGLQLVGQYSGKPRVFGGCATTWIVL [W229A]	decreasing interaction strength
MSCVYAFGSNGQRQLGLGHDEDMDTPQRSVPGDDGAIVRKIACGGNHSVMLTNDGNLVGCGDNRRGELDSAQALRQVHDWRPVEVPAPVVDVACGWDTTVIVDADGRVWQRGGGCYEFTQQHVPLNSNDERIAVYGCFQNFVVVQGTRVYGWGSNTKCQLQEPKSRSLKEPVLVYDTGSVAVDYVAMGKDFMVIVDEGGRIVHASGRLPTGFELKQQQKRHNLVVLCMWTSIHLWNARLNTVESFGRGTHSQLFPQERLDFPIVGVATGSEHGILTTANQEGKSHCYNVYCWGWGAHGNCGPQKGSQPGLQLVGQYSGKPRVFGGCATTWIVL [E296A]	increasing interaction strength

Variants of: B2
Conditions: with dph3_yeast KTI11, Q3E840
Remark: another data set of the same source

Variant	effect of a mutation on the interaction
MSCVYAFGSNGQRQLGLGHDEDMDTPQRSVPGDDGAIVRKIACGGNHSVMLTNDGNLVGCGDNRRGELDSAQALRQVHDWRPVEVPAPVVDVACGWDTTVIVDADGRVWQRGGGCYEFTQQHVPLNSNDERIAVYGCFQNFVVVQGTRVYGWGSNTKCQLQEPKSRSLKEPVLVYDTGSVAVDYVAMGKDFMVIVDEGGRIVHASGRLPTGFELKQQQKRHNLVVLCMCTSIHLWNARLNTVESFGRGTHSQLFPQERLDFPIVGVATGSEHGILTTANQEGKSHCYNVYCWGWGEHGNCGPQKGSQPGLQLVGQYSGKPRVFGGCATTWIVL [W229C]	decreasing interaction strength

Variants of: B2
Conditions: with dph3_yeast KTI11, Q3E840
Remark: another data set of the same source

Variant	effect of a mutation on the interaction
MSCVYAFGSNGQRQLGLGHDEDMDTPQRSVPGDDGAIVRKIACGGNHSVMLTNDGNLVGCGDNRRGELDSAQALRQVHDWRPVEVPAPVVDVACGWDTTVIVDADGRVWQRGGGCYEFTQQHVPLNSNDERIAVYGCFQNFVVVQGTRVYGWGSNTKCQLQEPKSRSLKEPVLVYDTGSVAVDYVAMGKDFMVIVDEGGRIVHASGRLPTGFELKQQQKRHNLVVLCMCTSIHLWNARLNTVESFGRGTHSQLFPQERLDFPIVGVATGSEHGILTTANQEGKSHCYNVYCWGWGEHGNCGPQKGSQPGLQLVGQYSGKPRVFGGCATTWIVL [W229C]	disrupting interaction strength
MSCVYAFGSNGQRQLGLGHDEDMDTPQRSVPGDDGAIVRKIACGGNHSVMLTNDGNLVGCGDNRRGELDSAQALRQVHDWRPVEVPAPVVDVACGWDTTVIVDADGRVWQRGGGCYEFTQQHVPLNSNDERIAVYGCFQNFVVVQGTRVYGWGSNTKCQLQEPKSRSLKEPVLVYDTGSVAVDYVAMGKDFMVIVDEGGRIVHASGRLPTGFELKQQQKRHNLVVLCMATSIHLWNARLNTVESFGRGTHSQLFPQERLDFPIVGVATGSEHGILTTANQEGKSHCYNVYCWGWGEHGNCGPQKGSQPGLQLVGQYSGKPRVFGGCATTWIVL [W229A]	disrupting interaction strength
MSCVYAFGSNGQRQLGLGHDEDMDTPQRSVPGDDGAIVRKIACGGNHSVMLTNDGNLVGCGDNRRGELDSAQALRQVHDWRPVEVPAPVVDVACGWDTTVIVDADGRVWQRGGGCYEFTQQHVPLNSNDERIAVYGCFQNFVVVQGTRVYGWGSNTKCQLQEPKSRSLKEPVLVYDTGSVAVDYVAMGKDFMVIVDEGGRIVHASGRLPTGFELKQQQKRHNLVVLCMWTSIHLWNARLNTVESFGRGTHSQLFPQERLDFPIVGVATGSEHGILTTANQEGKSHCYNVYCWGAGEHGNCGPQKGSQPGLQLVGQYSGKPRVFGGCATTWIVL [W294A]	decreasing interaction strength

Variants of: B3
Conditions: with dph1_yeast DPH1, P40487

Variant	effect of a mutation on the interaction
MSTYDEIEIEDMTFEPENQMFTYPCPCGDRFQIYLDDMFEGEKVAVCPSSSLMIDVVFDKEDLAEYYEEAGIHPPEPIAAAA [C50S]	disrupting interaction strength
MSTYDEIEIEDMTFEPENQMFTYPCPSGDRFQIYLDDMFEGEKVAVCPSCSLMIDVVFDKEDLAEYYEEAGIHPPEPIAAAA [C27S]	disrupting interaction strength
MSTYDEIEIEDMTFEPENQMFTYPSPCGDRFQIYLDDMFEGEKVAVCPSCSLMIDVVFDKEDLAEYYEEAGIHPPEPIAAAA [C25S]	disrupting interaction strength
MSTYDEIEIEDMTFEPENQMFTYPCPCGDRFQIYLDDMFEGEKVAVSPSCSLMIDVVFDKEDLAEYYEEAGIHPPEPIAAAA [C47S]	disrupting interaction strength

Variants of: B4
Conditions: with ats1_yeast ATS1, P31386

Variant	effect of a mutation on the interaction
MSTYDEIAIEDMTFEPENQMFTYPCPCGDRFQIYLDDMFEGEKVAVCPSCSLMIDVVFDKEDLAEYYEEAGIHPPEPIAAAA [E8A]	decreasing interaction strength
MSTADEIEIEDMTFEPENQMFTYPCPCGDRFQIYLDDMFEGEKVAVCPSCSLMIDVVFDKEDLAEYYEEAGIHPPEPIAAAA [Y4A]	disrupting interaction strength
MSTYAEIEIEDMTFEPENQMFTYPCPCGDRFQIYLDDMFEGEKVAVCPSCSLMIDVVFDKEDLAEYYEEAGIHPPEPIAAAA [D5A]	disrupting interaction strength

Variants of: B4
Conditions: with ats1_yeast ATS1, P31386
Remark: another data set of the same source

Variant	effect of a mutation on the interaction
MSTYDEAEAEDMTFEPENQMFTYPCPCGDRFQIYLDDMFEGEKVAVCPSCSLMIDVVFDKEDLAEYYEEAGIHPPEPIAAAA [I7A;I9A]	decreasing interaction strength
MSTADEIEIEDMTFEPENQMFTYPCPCGDRFQIYLDDMFEGEKVAVCPSCSLMIDVVFDKEDLAEYYEEAGIHPPEPIAAAA [Y4A]	decreasing interaction strength
MSTAAEIEIEDMTFEPENQMFTYPCPCGDRFQIYLDDMFEGEKVAVCPSCSLMIDVVFDKEDLAEYYEEAGIHPPEPIAAAA [Y4A;D5A]	decreasing interaction strength

Variants of: B4
Conditions: with ats1_yeast ATS1, P31386
Remark: another data set of the same source

Variant	effect of a mutation on the interaction
MSTYAEIEIEDMTFEPENQMFTYPCPCGDRFQIYLDDMFEGEKVAVCPSCSLMIDVVFDKEDLAEYYEEAGIHPPEPIAAAA [D5A]	decreasing interaction strength
MSTYDAIAIEDMTFEPENQMFTYPCPCGDRFQIYLDDMFEGEKVAVCPSCSLMIDVVFDKEDLAEYYEEAGIHPPEPIAAAA [E6A;E8A]	decreasing interaction strength
